In a protein production outcome set (Wang et al. 2014) one finds protein production data, which are given here for 19 sequences.
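Further: failed if final PepcDB status was selected cloned or expressed and not failed if soluble or beyond.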

The nature of this data set: label from the status in PepcDB records.
Take “MAPDLSGTWYVLEGDPGEHLVVEALGERLSGIWTSRELAEAFLAHHPHLGMRVSALESRALKEAYLRALGMLQVEAVMVDYRPGTHRAQVARVKDLLEEVRRA”: the protein production entry is reported as “not failed”.

On to “MDSSSISSLLEDLKHSDALVREQATKKLWRIWFQQKGMYGLEKIDQSQKLLDAGEITEAEVMLTQLIQEQPDFAEAWNRRAFLYYSMGEYQKSLADCQMVIQINPVHFGALHGIGLCYAALGKYAKAIKAFKRALEIQPYSLVNQKLILECTFRLSLEHHHHHH”, for which the protein production result was “failed”.

For the sequence “MTSKHFISKKEAKRIWEAMARYGIDITGESLEVAAQKSASAYYIGGKPMVFQAGDLIPSVYLLNYRNPSRNIVTVDEGAEPHILNGSDLFAPGIVSMDDSIRKGDMIFVKSSKGYFIAVGMAEMDAGEVMATKRGKAARIIHFPGDELIRAFP”, the protein production result is “not failed”.

“MKITVIVPTYRRTKDLTRCLESLEKQSRPADEVLVVVRDTDVETWQFLETIAPHSLPLHTTTVRVPGVVAAMNAGLDIAQGDIIAFTDDDAAPHSNWLAQIETHFLAHEQIAGVGGRDWVYHGDRLEDGTCPVVGQVHWFGRVIGNHHIGIGKPREVDVLKGVNMSFRRSAVHGLRFDQRMLGTGAQVHFEVAFCLALKRAGWKLIYDPQIGVNHYPAQRFDEDQRQSFNHLAVTNAVHNETLALLEHLSPTQQLTFLLWATLVGTRDSMGLIQFLRFLPSDRALAGQKLLAAWYGRWRGWRTWQSSIRFAQIKN”: the protein production result was “failed”.

On to “MSGRGKVKSEPMKVVFINTQYVETDARSFKTVVQELTGKNAIVAAGPFDSPSAFDGRCYDGGSKIGEDTRQLHGGGGGGGRMGTTTEFDRLFKEMPHMEELYKLWSEY”, for which the protein production entry is listed as “failed”.

For “MCTFCSIINRELEGYFVYEDEKFAAILDKYPVSLGHTLVIPKKHFENYLEADEDTLAELAKVVKLVSLGIKDAVKADGLRLLTNIGRSAGQVIFHLHVHIIPTWEGDYPDIFKSFKPRKEQEKEYYELLQKIIRESIENLKRKIGDYKWG”, the protein production result is listed as “not failed”.

Regarding “METRYNLKSPAVKRLMKEAAELKDPTDHYHAQPLEDNLFEWHFTVRGPPDSDFDGGVYHGRIVLPPEYPMKPPSIILLTANGRFEVGKKICLSISGHHPETWQPSWSIRTALLAIIGFMPTKGEGAIGSLDYTPEERRALAKKSQDFCCEGCGSAMKDVLLPLKSGSDSSQADQEAKELARQISFKAEVNSSGKTISESDLNHSFSLTDLQDDIPTTFQGATASTSYGLQNSSAASFHQPTQPVAKNTSMSPRQRRAQQQSQRRLSTSPDVIQGHQPRDNHTDHGGSAVLIVILTLALAALIFRRIYLANEYIFDFEL”, the protein production entry is “failed”.

Take “MDNRNIDPYFNPEQFLETQKYKGTVTALIFLLLFFIFLMVAFKKAFFAQANMPNLVMSKQDTAARGTIYSQDNYSLATSQTLFKLGFDTRFLNPDKEDFFIDFLSIYSNIPKKSLKDAINTKGYIILAYDLTPNMAANIRDLNKKFLAFGVFQNFKDAHDKVWQKQGLNIEVSGVSRHYPYQNSLEPIIGYVQKQEEDKLTLTTGKKGVEKSQDHLLKAQQNGIRTGKRDVSFNFIQNHSYTEVERLDGYEVYLSVPLKLQREIETLLDKTKDKLKAKEILVGIINPKSGEILSLASSKRFNPNAIKTSDYESLNLSVAEKVFEPGSTIKPIVYSLLLDKNLINPKERIDLNHGYYQLGKYTIKDDFIPSKKAVVEDILIQSSNVGMIKISKNLNPKDFYNGLLGYGFSQKTGIDLSLEATGKIPPLSAFKREVLKGSVSYGYGLNATFLQLLRAYAVFSNEGKLTTPYLVQRETAPNGDIYIPSPKPTFQVISPKSARKMKETLIKVVRYGTGKNAQFEGLYIGGKTGTARVAKNGSYSAQSYNSSFFGFAEDERQVFTIGVVILGSHGKEEYYASKIAAPIFKEITEILVRYNYLSPSIAIQNALEKNRFKIK”: the protein production result is given as “failed”.

Turning to “MSEKPLISVLMPNYNSEKYLNEAIESILNQTYENFEFIILDDCSTDNSWKIIQEYAKKDKRINIFRNEKNLGRPKTYNRLLNMISNESFFFFFMGSDDVVKENMINIKLNYFNNFEEIDGIGNSIEYVDENLNFIKKREYPLTDRDIRKNFLIFNPISQGGMCLKSNLKNETFNEKYKVCLDYEIWTRLIDKGYTFENLKESLYLYRQQREQAKQKNLKMTLVNTVKIKSKYLFRPQYFSINAFLRFNLEILLLMLPKKLILWVFYKSL”, the protein production entry is recorded as “failed”.

On to “MFNKISLEIMKRSALTLMPTVLALAVGMAMPAVQAAINSDASVVGTESQWWNTYKVTLTNNGNQPVELRDASIAFDTNLSLSTPSWSAQGISYPSMSFSSNAQGSVFSNRLTLSFDQGSWVKTQLLPGASIDLTLGVSGVLELSLLQSTIALETDGEVEPGEPEISLELASPVQGAEFIEGQTVAIVANVTATNTTVKTVTFLVDGEQIALLEQAPFQASWTAAGEGAHSIKAIVEDASGLLKEQAVRITVKAEEIDPPVEPEVPVAPVIELTNPRNGQSVFLGKVTTLAANATDENNDLTAVEFLVNGESIGRVTQAPYQLAWTPVALGQYTIEAIAYDAAGHQTQTPMVTVNAKEMGTGNLSCDIKQIYREDGTECMGDDHPRRIIGYYTSWRTGKNGLPAYLAGDLPWEKLTHINYAFASINKSDFSMQVDDSATKMTWENVPGAEMDPSLPYQGHFNLLSKFKKQYPDVKTLISVGGWAETGGFYPMTTDLASCSVNMEGIKAFNKSAVDFIRQYDFDGVDIDYEYPSSMKDSGNPVDFEQSNKCRGQLWDNYMVMMTELRKALDKAGEEDGRRYMLTIASPSSAYLLRGMQDFAMQDVLDYVNIMSYDLHGTWNEFVGPQAALFDDGKDAELAKWGVYTTAEYQGIGYLNQAWTHHFFRGAFKPSQINMGIPYYTRGWQGVSGGDKGLWGRAVEPNQSSCPEGTTVCGWGAEGTDNIWHDVDANGNEIKAGVVPMWHAMNLMHAEKLGIDGMPSYGPAWGMDPNNPKHLIEGKYERVWSQELQTAWLWNDTKKVFLSIEDKDSLKPKLDYIVDNGLGGMMIWEMAGDYSYDAVKREYVIGSDMTSYAHEVFAAAKPMDIRHNDLPQPDSVIDVTVSTTEWPEGDSNYPINPKLVFTNHSNVAIPGGSTIEFLMPTSSGDIVKDWSGAGLKVIESGHTGSNFSVNGEKKLFHKVAVTLRSTETIPAGGEYSVDMVYYTPVSGVANGVRFIVGNETVGLKKDFPTLPAFEGATDGGNGNEGGAGQSCADAGINPNGLKVYPEFPRGDHAAGGDQLIHNGSVWQANWWTNSTPSSADASWKAVCKI”, for which the protein production result is recorded as “failed”.

For “MSNIECVMFDCDGTLVDSEVLCCRAYVVMFAHYDIHLSLEEVIKRFKGVKLNEIVARVSQENGLDEPIEKLEKLYRAEVARLFDAELQPIAGAKALLEQITLPVCVVSNGPVSKMQHSLGLTGLLPFFEDKLYSGYDIQRWKPDPTLIYHAAEKMHVAAERCILVEDSAAGTHAGIAAGIPVYYYCADPHNQPIHHPLVTMFDDMQQLPDLWRERGWQITSH”, the protein production result is “failed”.

Regarding “DQPLAVAGDELAIADQTIDALSAQVEKLRHQQDLSLKQAELLTELSRANLSDIDEIQGVIQKNLDQARALFGCERLVFYYHPRYQPEAMVVQALDLTTQGLIDSKDPHPWGQEDMPSQIVAINDTSGASISNPHRQWLEQHQVKASLTVPLHRDNYPLGLLMAHHCQRPHQWEMRERQFLQQLTEELQTTLDRANLIQERNESAQQAQILKELTLKISAAIN”, the protein production entry is on record as “failed”.

Consider “MTSFAQLDIKSEELAIVKTILQQLVPDYTVWAFGSRVKGKAKKYSDLDLAIISEEPLDFLARDRLKEAFSESDLPWRVDLLDWATTSEDFREIIRKVYVVIQEKEKTVEKPTAL”, for which the protein production result is listed as “not failed”.

Regarding “MSKKQKSKYIVIFGCGRLGSLIANLASSSGHSVVVVDKNEYAFHRLNSEFSGFTVVGDAAEFETLKECGMEKADMVFAFTNDDSTNFFISMNARYMFNVENVIARVYDPEKIKIFEENGIKTICPAVLMIEKVKEFIIGSEED”, the protein production result was “not failed”.

As for “MAMVSGRRSTLNPDAPLFIPAAVRQVEDFSPEWWQLVTTSTWYPDYWISQQQQGADGFYDNGENENGGGHIDVADLLPESFDFDDMEDFFDTDAAEFDQGFDGRMYYQAPSEFGFGKNGEMVKKSSGNRSPRSIVEPAKYAEKPAKWGNQRVAAAPRNIHQPR”, the protein production entry is listed as “failed”.

As for “MEIVFLGGAKEVGASCVLIKAGGKNILLDSGIRMKEDKLPNLQLLRELGGADVCLISHAHLDHIGSLPLIAREYPHIFFYTNQPTKDLIKVLLYDSLKIMDAKEDEIPIYAEKNVEDLLDRTITYGFNYTFEPLEGIKVTFFPAGHILGASMIFIQTQEGSVLYTGDFSTDKQLTVDKASIPKIRPDVVICESTYGDRLHTNRNYEEERLFNSIYEFISKGGKVLIPAFAIGRAQEIILILRNYMKKKKVEFNVFIDGMVREVIRVYKNNPTFLSSRYYKKVLKGEEIFLSDNIDIITDKKQREEIMSSSDPCVIISSSGMLTGGPSVFYAEKLVENQNALIAITGYQDEESPGRKLLELTELPESERKIELNGKEYEVKCKVEKYGLSAHADRDSILGFLAMLKPKTVVFAHGSEEAISQLSDMAIKEIESAVLIPQNGEMNTISIEKPRRQLSFFNVKKLSNIEPLNEENIKSLWEYLLESKQEANHITAEHAILIWNGKQFLERDEVNRVFELLKSSPYFEQNPRKPYLFRILSRTEVENKLKPKPMEQNKMRELAFEMFKDFGLYKVGMDNENVVVTFYFNFPHIANRLEDKIKEFEEKTLWKVEVNPNINLTYAQKYLQKLLEDEGVKLLKFSYNPVINAIVVKPNKEFDSMKELCSKFLDETGIELIFDIENKEDCTARLQNKDRMEQNKALLLIDLYFENEKDKVYKKSIKEGGKYIELSFVTPFVAEKYKDKLNELSQKTGWEIRISQTINQVEMVNILKDILAKYNIDLIKNPSIYPSIREVRIKLAGEIDSNIVNEIANEFYDRTGFYLKI”, the protein production entry is “failed”.

Take “MSVVPVADVLQGRVAVDQEVTVRGWVRTRRDSKAGISFLAVYDGSCFDPVQAVINNSLPNYNEEVLHLTTGCSVVVTGKVVASPGQGQSFEIQATKVEVAGWVEDPDTYPMAAKRHSIEYLREVAHLRPRTNLIGAVARVRHTLAQALHRFFDEQGFFWVSTPLITASDTEGAGEMFRVSTLDLENLPRNDQGRVDFDKDFFGKESFLTVSGQLNGETYACALSKIYTFGPTFRAENSNTSRHLAEFWMLEPEVAFADLEDNARLAEAMLKYVFNAVLEERADDMKFFAERVDKDAIARLERFVSTDFAQVDYTDAVAILERCGKTFENPVFWGVDLSSEHERYLAEEHFKAPVVVKNYPKEIKAFYMRLNEDGKTVAAMDVLAPGIGEIIGGSQREERLDVLDARMAEMGLNKEDYWWYRDLRRYGTVPHSGFGLGFERLIAYVTGVQNVRDVIPFPRTPRNASF”: the protein production result is on record as “failed”.

Regarding “MKRNSSIDLMKSCAIFFVISVHFLLNSGFYDMTIHSTLAIFWIGIRTILITCVPLFLVATGFLMNRKELSAQYVLGIVPVIISYIGISLLVWGVLSLVGKGSDFSTAINGIFDYSTDSYSWYVEMYLGLYLFIPLLNIIWNYKKEIKNYHLYIVFIASLLTFLPSLLNSFGKVIPDYWQICYPVSYYFIGAYLYTYQNEIKKISIGKLVTAFLSALTIFTLTDTFASWNQEFQWLDHNDYFGYQTAIMTVLVIAILWRTPIPKWSVRLLKALSTATLTIYLISDLTDQFVYGFFKHEIPNLSQRVIAGPIIIPVAFTSAALLGIFVGKVLNIPFKRKKERKEN”, the protein production result was “failed”.

Regarding “MNVPILPTISTSCIVISAILVAIGWALIWKRQVHKHKNIMLWAAFFALTFFIIYAARTIFIGNTAFGGPSSIKVYYTIFLVFHIILATVGGVLGLIQIILAFKDKLHIHRKIGPWASIIWFFTAITGVAVYVLLYVLYPGGETTSLLKATLGL”, the protein production entry is reported as “failed”.
